Assay results: PMC6768852

Experiments:
Assay in all cases: EMSA
Settings in all cases: EMSA: 100 pM RNA, 10 mM Tris, 100 mM NaCl, 0.1 mM EDTA, 0.01 mg/mL tRNA, 50 ug/mL heparin, 0.01% IGEPAL CA630, room temperature, 3 h; pH not stated
[1] = molecular target: IMP2 KH34 double VL MUT (UniProt Q9Y6M1)
[2] = molecular target: IMP2 KH4 VL MUT (KH34) (UniProt Q9Y6M1)
[3] = molecular target: IMP2 KH3 VL MUT (KH34) (UniProt Q9Y6M1)
IMP2 KH3 VL MUT (KH34), sequence (Q9Y6M1 425-581): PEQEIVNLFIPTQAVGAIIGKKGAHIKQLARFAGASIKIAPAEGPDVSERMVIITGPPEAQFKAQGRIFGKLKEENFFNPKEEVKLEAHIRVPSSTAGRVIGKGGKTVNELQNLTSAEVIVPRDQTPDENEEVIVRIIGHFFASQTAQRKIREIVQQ

IMP2 KH4 VL MUT (KH34), sequence (Q9Y6M1 whole entry): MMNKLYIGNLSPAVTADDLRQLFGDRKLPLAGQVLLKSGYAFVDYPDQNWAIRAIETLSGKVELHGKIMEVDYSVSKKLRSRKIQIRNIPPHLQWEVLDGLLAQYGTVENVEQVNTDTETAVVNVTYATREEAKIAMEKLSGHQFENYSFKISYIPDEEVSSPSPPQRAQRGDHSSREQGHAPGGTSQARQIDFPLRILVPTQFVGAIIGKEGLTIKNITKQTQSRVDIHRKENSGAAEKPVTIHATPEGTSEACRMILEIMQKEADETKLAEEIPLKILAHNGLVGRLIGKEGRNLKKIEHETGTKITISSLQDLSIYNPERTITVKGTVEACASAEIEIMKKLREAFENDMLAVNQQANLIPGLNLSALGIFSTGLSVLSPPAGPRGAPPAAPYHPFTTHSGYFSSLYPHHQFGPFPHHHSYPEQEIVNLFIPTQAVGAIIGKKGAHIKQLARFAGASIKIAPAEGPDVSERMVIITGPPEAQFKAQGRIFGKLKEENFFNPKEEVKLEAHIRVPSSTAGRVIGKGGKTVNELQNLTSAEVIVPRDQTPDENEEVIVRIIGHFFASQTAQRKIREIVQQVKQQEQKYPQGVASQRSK
IMP2 KH34 double VL MUT, sequence (Q9Y6M1 whole entry): as above

Sequence: ACCGGACUGUUACCAACACCCACACCCC [C28 beta-actin zipcode WT]
- Kd [1]: 26.5 nM
- Kd [2]: 346 nM
- Kd [3]: 7.3 nM
